The target of the experiment is CARD-deleted NLRC4 (mouse) (UniProt Q3UP24). Put plainly: cryo-EM structure.

“And” between values parts separate entries of the source, which are not always exact repeats. Equal entries are not always repeated.

For the substance “CARD-deleted NLRC4 (from UniProt Q3UP24 1-1024) (domain or fragment)”, the blades of the disk (one of them taken to be NAIP2) was 11 blades and 12 blades and 10 blades.

Values taken from PMC4640189.
